Results from article PMC8567202, “Phosphoinositide-binding activity of Smad2 is essential for its function in TGF-β signaling” (The Journal of Biological Chemistry, 2021).
Changes are numbered by the printed parent chain. Numbers in names are those of the source.

B1: Smad2-W422A: W422A mutant of full-length Smad2; specific PI(4,5)P2 binding-compromised (protein)
chain: MSSILPFTPPVVKRLLGWKKSAGGSGGAGGGEQNGQEEKWCEKAVKSLVKKLKKTGRLDELEKAITTQNCNTKCVTIPSTCSEIWGLSTANTVDQWDTTGLYSFSEQTRSLDGRLQVSHRKGLPHVIYCRLWRWPDLHSHHELKAIENCEYAFNLKKDEVCVNPYHYQRVETPVLPPVLVPRHTEILTELPPLDDYTHSIPENTNFPAGIEPQSNYIPETPPPGYISEDGETSDQQLNQSMDTGSPAELSPTTLSPVNHSLDLQPVTYSEPAFWCSIAYYELNQRVGETFHASQPSLTVDGFTDPSNSERFCLGLLSNVNRNATVEMTRRHIGRGVRLYYIGGEVFAECLSDSAIFVQSPNCNQRYGWHPATVCKIPPGCNLKIFNNQEFAALLAQSVNQGFEAVYQLTRMCTIRMSFVKGAGAEYRRQTVTSTPCWIELHLNGPLQWLDKVLTQMGSPSVRCSSMS
modifications: left off: His6, N-terminal, state not stated
B2: Smad2- R427A/R428A: double mutant of full-length Smad2; PI(4,5)P2 and TβRI binding-compromised (protein)
chain: B1 chain with A422W, R427A, R428A
modifications: left off: His6, N-terminal, state not stated
B3: Smad2-K420A: K420A mutant of full-length Smad2; predominantly TβRI binding-compromised (protein)
chain: B1 chain with K420A, A422W
modifications: left off: His6, N-terminal, state not stated
B4: Smad2-Y426A: Y426A mutant of full-length Smad2; specific PI(4,5)P2 binding-compromised (protein)
chain: B1 chain with A422W, Y426A
modifications: left off: His6, N-terminal, state not stated
B5: Smad2 WT: bacterially expressed full-length Smad2 wild-type (protein)
chain: B1 chain with A422W
modifications: left off: His6, N-terminal, state not stated
notes: bacterially expressed full-length Smad2 wild-type
B6: EGFP-Smad2 WT: mouse EGFP-Smad2 wild type transfected into HeLa cells (protein, UniProt Q62432 2-467, looked up)
Mothers against …: SSILPFTPPVVKRLLGWKKSAGGSGGAGGGEQNGQEEKWCEKAVKSLVKKLKKTGRLDELEKAITTQNCNTKCVTIPSTCSEIWGLSTANTVDQWDTTGLYSFSEQTRSLDGRLQVSHRKGLPHVIYCRLWRWPDLHSHHELKAIENCEYAFNLKKDEVCVNPYHYQRVETPVLPPVLVPRHTEILTELPPLDDYTHSIPENTNFPAGIEPQSNYIPETPPPGYISEDGETSDQQLNQSMDTGSPAELSPTTLSPVNHSLDLQPVTYSEPAFWCSIAYYELNQRVGETFHASQPSLTVDGFTDPSNSERFCLGLLSNVNRNATVEMTRRHIGRGVRLYYIGGEVFAECLSDSAIFVQSPNCNQRYGWHPATVCKIPPGCNLKIFNNQEFAALLAQSVNQGFEAVYQLTRMCTIRMSFVKGWGAEYRRQTVTSTPCWIELHLNGPLQWLDKVLTQMGSPSVRCSSMS
modifications: EGFP fusion
notes: mouse EGFP-Smad2 wild type transfected into HeLa cells

How the values were obtained:
[1] = SPR membrane binding to POPC/POPS vesicles; conditions: for binding to POPC/POPS (80:20): RU/RUmax, 100 nM protein
Text: It has been generally thought that Smad2 and Smad3 are targeted to the activated TGF-β signaling complex by direct interaction with TβRI ([1], [2]) or via SARA ([7]). However, it has been shown that many cytosolic proteins that are targeted to membrane proteins or membrane-anchored signaling complexes have affinity for membrane lipids ([14]), phosphoinositides (PtdInsPs) in particular, and that their membrane recruitment is mediated by coincident lipid–protein and protein–protein interactions ([15], [16]). For most of these proteins, their PtdInsP specificity directs their membrane targeting behaviors: e.g., PI(4,5)P2-specific proteins are recruited to PM where the highest concentration of PI(4,5)P2 is found, whereas PI(3)P-specific proteins are targeted to PI(3)P-rich EEs ([17], [18]). To resolve uncertainty about the functional location of the activated TGF-β signaling complex, we thus explored the possibility that lipid-binding activity of Smad2 may play a role in specific targeting of Smad2 to the active TGF-β receptor complex either at the PM or at EEs. Lipid-binding activity of Smad proteins has not been reported to date. We thus measured the binding of bacterially expressed Smad2 to large unilamellar vesicles (LUVs) containing various lipids by surface plasmon resonance (SPR) analysis ([19], [20]). Lipid selectivity determined by SPR analysis is typically reported as the relative resonance unit (RU) values for different lipids at a given protein concentration ([21], [22]). Although simple and intuitive, this type of analysis can sometimes yield misleading and erroneous results because some proteins show widely different RU values when bound to different lipid surfaces. Thus, a more reliable parameter that represents the fraction of the membrane bound protein molecules at a given protein concentration would be a normalized value of RU/RUmax where RUmax indicates the maximal RU value when a given lipid surface is saturated with the protein molecules. We thus estimated RUmax for different lipid species by employing the highest protein concentration experimentally feasible (e.g., 1 μM) and determined RU/RUmax for different lipids at the protein concentration that allows robust comparison (e.g., 100 nM). Once the lipid selectivity has been determined by this semiquantitative approach, we then rigorously determined and compared Kd values for selected lipids for more accurate quantitative determination of lipid selectivity.
Figure 1 Membrane-binding properties of Smad2 FL protein and MH2 domain determined by SPR analysis.A, PtdInsP selectivity of Smad2-FL determined using POPC/POPS/PtdInsP (77:20:3 in mole ratio) LUVs coated on the L1 sensor chip. The protein concentration was 100 nM. PIP3 indicates PI(3,4,5)P3. B, determination of Kd for binding of Smad2 FL to different LUVs. The protein concentration was varied from 0 to 500 nM. C, PI(4,5)P2 concentration dependence of membrane binding of Smad2-FL determined using POPC/POPS/PI(4,5)P2 (77-x:20:x, x = 0–5 mol%) LUVs. The protein concentration was 100 nM. D, PtdInsP selectivity of the Smad2 MH2 domain determined using POPC/POPS/PtdInsP (77:20:3 in mole ratio) LUVs. The protein concentration was 100 nM. Normalized RU values (RU/RUmax) were used for all figures but (C) for more accurate determination of PtdInsP selectivity. RUmax values determined for different vesicles at 1 μM Smad2 were: 280 ± 20 for POPC/POPS/PI(4,5)P2 (77:20:3), 370 ± 10 for POPC/POPS/PI(3,4)P2 (77:20:3), 400 ± 15 for POPC/POPS/PI(3,4,5)P3 (or PIP3) (77:20:3), 400 ± 20 for POPC/POPS/PI(3)P (77:20:3), and 380 ± 20 for POPC/POPS (80:20). Only the association phases of the sensorgrams are shown and used for further analysis. Each set of sensorgrams shown in A and D are representatives of >5 independent measurements. Data points shown in B and C are the average ±S.D. values from triplicate measurements. […]

[2] = SPR PtdInsP selectivity; assay type: binding; conditions: RU/RUmax, 100 nM protein
Text: It has been generally thought that Smad2 and Smad3 are targeted to the activated TGF-β signaling complex by direct interaction with TβRI ([1], [2]) or via SARA ([7]). However, it has been shown that many cytosolic proteins that are targeted to membrane proteins or membrane-anchored signaling complexes have affinity for membrane lipids ([14]), phosphoinositides (PtdInsPs) in particular, and that their membrane recruitment is mediated by coincident lipid–protein and protein–protein interactions ([15], [16]). […] We thus measured the binding of bacterially expressed Smad2 to large unilamellar vesicles (LUVs) containing various lipids by surface plasmon resonance (SPR) analysis ([19], [20]). Lipid selectivity determined by SPR analysis is typically reported as the relative resonance unit (RU) values for different lipids at a given protein concentration ([21], [22]). […] We thus estimated RUmax for different lipid species by employing the highest protein concentration experimentally feasible (e.g., 1 μM) and determined RU/RUmax for different lipids at the protein concentration that allows robust comparison (e.g., 100 nM). Once the lipid selectivity has been determined by this semiquantitative approach, we then rigorously determined and compared Kd values for selected lipids for more accurate quantitative determination of lipid selectivity. […]

[3] = system: HeLa cells; test: Confocal imaging of Smad2 localization; assay type: cell-based
Method: Supplemental Fig. S1. Confocal images of endogenous Smad2 and exogenously expressed EGFP-Smad2 in HeLa cells before (A) and 10 min after (B) TGF-β stimulation.
Endogenous Smad2 images were obtained by immunostaining using the Smad2-specific antibody. 10 ng/ml TGF-β was used for stimulation. Scale bars indicate 10 μm.
Supplemental Fig. S2. Suppression of endogenous Smad2 expression in HeLa cells by siRNA.
Western blot analysis showing that expression of endogenous Smad2 in HeLa cells was successfully suppressed by siRNA. 30 nM siRNA-3 was routinely used for knockdown experiments. For re-introduction of mouse Smad2 to these cells, see Fig. 5A. Glyceraldehyde 3-phosphate dehydrogenase (GAPDH) was used as a gel loading control. […]

Molecule | binding to POPC/POPS (80:20) ([1]; SPR) | also measured
B1 | much less effects on binding | 
B2 | much less effects on binding | 
B3 | modestly and similarly reduced binding to both vesicles | 
B4 | much less effects on binding | 
B5 |  | RUmax ([1]; POPC/POPS (80:20), 1 μM Smad2): 380 ± 20; Kd ([1]; SPR, L1 chip, 23 °C, 20 mM Tris, pH 7.4, 0.16 M NaCl, POPC/POPS (80:20), average ±S.D., n = 3, read-out: Kd for lipid binding, PC/PS): 560 ± 150 nM; PtdInsP selectivity [2]: significant degree of selectivity for POPC/POPS/PI(4,5)P2 (77:20:3) over other PtdInsP-containing vesicles
B6 |  | localization in unstimulated cells [3]: mostly distributed in the cytoplasm with little prelocalization to the PM
